Experiment: yeast display, Sf9 membrane polyspecificity reagent, FACS + sequencing; frameworks hold sequencing errors
In short: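 Galactose-induced (36–48 hours) yeast carrying a synthetic nanobody display library were exposed to 10% biotinylated, detergent-solubilized Sf9 membrane reagent at 4 °C for 1 hour. FACS followed streptavidin microbead enrichment, using low and high (top ~1%) gates for expression (anti-HA) and reagent binding (streptavidin). Colony PCR, MiSeq 2 × 250 sequencing and CDR-length filtering followed. Labels for polyreactivity reflect the gate of origin.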

Sequence	polyreactivity (PSR sort gate)
QDQLVDSGGGLVQAGGSLRLSCAASGRTIISYAMGRYRPAPGKERELVATITRDGRTNYADSVKGRFTISRDNAKNTVYLQMNSLNPEDTAVYYCNADSRYRYDYWGQGSQVTVSS	low polyreactivity
QDQLVDSGGGLVQAGGSLRLSCAASGSNFCGKAMGWYRQAPGKEREFVAAITRSGGSTYYADSVKGRFTISRDNAKNTVYLQMNSLKPEDTAVYYCNRDYAFKHHRAGYGYWGQGTLVTVSS	low polyreactivity
QDQLVDSGGGLVQAGGSLRLSCAASGSTFGPYPMGWYRQAPGKERELVATISSGGSTYYADSVKGRFTISRDNAKNTVYLQMNSLKPEDTSVYDCAARYWSIYDYWGQGTQVTVSS	low polyreactivity
QDQLVDSGGGLVQAGGSLRLSCAASGYIFDRYAMGWYRQEPGKERELVAAISGRGGSTYYADSVKGRFTISRDNAKNTVYLQMYSLKREDTAVYYCARDVYVRNGQRARFDSWGQGTQVTVSS	high polyreactivity
QDQLVDSGGGLVQAGGSLSLSCAASGISFYGNAMAWYRPAPGKERELVAAITSGGSTNYADSVKGRFTISRDNAKNTVYLQLYSLKPEDTAVYYCAVSYVSTLRRSRYDYWGQGTQVTVSS	low polyreactivity
QDQLVDSGGVLVQAGGSLRLTCAASGSTFARNAMGWYRQAPGKERELVAAISSGGTTNYADSVKARFTISRDNAKNTVYLQMNSLKPEDTAVYYCNAGFRNVLTSGYLYDYWGQGTQVTVSS	low polyreactivity
QDQLVEERGGLVQAGGSLRLSCAASGITFSTNAMGWYRQAPGKERELVAAITSVTSTYYADSVKGRFTISRDYAKNSVYLQMNSLKTEDTAVLYCAASLSRWPYFYEYNYWGQGTQVTVSS	low polyreactivity
QDQLVESAGGLVQAGGSLRLSCAASARIFRYNAIGCYRQGPGKERVLVASITSAGSTNYADSVKGRFTISRDNAKNTVYLQMNSLKPEDTAVYYCNKRRAYGYYLFDYWGLGTQVTVSS	high polyreactivity
QDQLVESAGGLVQAGGSLRLSCAASASTFIVYAMGWYRQAPGKEREFVATINHSGDSTYYADSVKGRFTISRDNAKNTVYLQMNSLKPEDTAVYYCNATVVFVQYVDYDYWGQGTLVTVSS	low polyreactivity
QDQLVESAGGLVQAGGSLRLSCAASGRIFKSYAMGWYRQAPGKERELVASTSYTGGSTYYADSVKGRFTISRDNAKNTVYIQRNSLKPDETAVYYCAPKRVRSAGSYGYWGQGTQVTVSS	low polyreactivity
QDQLVESAGGLVQAGGSLRLSCAASGRTFVTNTMGWSRQAPGKERELVAAISSRGGTTYYADSVKGRFTISRDNAKNTVYLQMNSLKPEDTAVYYCNTGTRAIQRDGFEYWGQGTQVTVSS	low polyreactivity
QDQLVESAGGLVQAGGSLRLSCAATGLNLVPNTMGLYRQAPGKETQLVAAISYSGGGTYYADSVKGRFTISRDNAKNTVYLQMNSLKPEDTAVYYCAAYVKREYAPYGYWGQGTQVTVSS	low polyreactivity
QDQLVESGAGLVQAGGSLRLSCAASGSTFGIYAMGWSRQAPGKEREFVAAISRSGSSTYYADSVKGRFTISRDNAKNTVYLQMNSLKPEDTAVYYCAAVVRYSQAGYYYWGQGTHVTVSS	high polyreactivity
QDQLVESGGALVQPGGSLRLSCAASGRLLGRYAMGWYRQAPGKDRELVATITSGDDTNYADSVKGRFTISRDNAKNTVYLQMNSLKPEDTAVGYWGQGTQVTVSS	low polyreactivity
QDQLVESGGCLVQAGGSLRLRCAASGRTFEAYAKGGYRQAPGKERELVASISSGGSTYYADSVNGRFTISRDNAKNTVYLQMNSLKPEDTAVYYCAAKRATRYYFAYYRARSERMNYWGQGTQVTVSS	high polyreactivity
QDQLVESGGCLVQAGGSLRLSCAASGSIFKTYAMGWYRQAPGKERELVAAISWRGGSTYYADSVKGRFTISRDNAKNTVYLQMISLKPEDTAVYYCAAGRKFGTRTLWYRYGYWGQGTQVTVSS	high polyreactivity
QDQLVESGGGFVQAGGSLRLSCAASGFIFVTYAMGWFRQAPGKERELVAAITWSTTSTYYADSVKGRFTISRDNAKNTVYLQMNSLKPDETAVYSCAKYYFQYKHDYWGQGTQVTVSS	low polyreactivity
QDQLVESGGGFVQAGGSLRLSCEASGSIFNYYAMGCSRQAPGKERELVAAITTSGGNTYYADSVKGRFTISRDNAKNTVYLQMNSLKPEDTAVYYCAADYWASGGEYDYWGQGTQVTVSS	low polyreactivity
QDQLVESGGGFVQAGGSRRLSCAASGRTLAYNAMGWYRPAPGKEWEFVAAITYSGGSTYYADSVKGRFTISRDNAKNTVYLQMYSLKPEDTAVYYCNAKRKRGYGSKFDYWGQGTQVTVSS	high polyreactivity
QDQLVESGGGIVQAGGSLRLSCAASGRTFGINAMGWSRQAPGKERELVAVISCGDGGTYYADSVKWRFTISRDNAKNTVYLQMKSLKPEDTAVYYCSSEYQSTSLWGGHFVINPYDYWGQATQVTVSS	low polyreactivity
QDQLVESGGGLDHAGGSIRLSCAASGFISKYYAMGWYTQAPGKERELVASISRDGSTSYADTVKGRFTNTRDNAKNPVYLQMNSLKPEDTAVYYCNAGYNWYPLFDYWGQGTQVTVSS	high polyreactivity
QDQLVESGGGLDQAGGRLRLSCAASGSIFGVYAMGWYRQAPGKERELVASITWSSGSTNYADSVKGRFTISRDNAKNTVYLQMNSLKPEDTAVYYCNRVYARSQRVVTKFHYDYWGQGTQVTVSS	low polyreactivity

Sequence	polyreactivity (PSR sort gate)
QDQLVESGGGLDQAGGSLRLSCAASGFTFYNYAMGWYRQAPGKERELVAAISWNGGSTYYADSVKGRFTISRDNAKNTVYLQMNSLKPEDTAVYYCNADISQRTRGYYYVWWSRMDYWGQGTQVTVSS	low polyreactivity
QDQLVESGGGLDQAGGSLRLSCAASGRTFLWNAMGWYRQAPGKERELVARINLSGGRTYYADSVKGRFTISRDNAKNTVYLQMNSLKPDDTAVYYCAATVVRYRRDSWGQGTQVTVSS	low polyreactivity
QDQLVESGGGLDQAGGSLRLSCAATGGIIRQNVMGWYRQPPGKERELVAAISRRGVITYYADSVKGRFTISRDNAKNTVYLQMNSLKPDDTAVYYCNYKPTWDYSYWGQGTQLTVSS	high polyreactivity
QDQLVESGGGLDQARGSLRLSCAACGSTFPRYAMGWSRQAPGKERELVAAITASGGSTYYADSVKGRFTISRDNAKNPVYLQMNSLKPEDTAVYYCATPSLYTGYDYWGQGTQVTVSS	low polyreactivity
QDQLVESGGGLFQAGGSLRLICAASGFIFSSYDMGWDRQAPGKERELVAAITTVGSRIYADSVKGRFTISRDNAKNTVDLQMNCLKPEDSAVYVCATVPGGSWLVLWWSTGGDDEYWGHGTQVTVSS	low polyreactivity
QDQLVESGGGLFQAGGSLRLSCAASGFTFVDYTMGWYRQEPGKEREFVAAISSSGGSTYYADSVKGRITISRDYAKNTVYFQMNSLKPEDTAVYYCKADAINKRGGRDYWGQGTQVTVSS	high polyreactivity
QDQLVESGGGLFQAGGSLRLSCSASGSIFQYYTMGWYRQAPGKERELVAAIKSGGRTNYADSVKGRFTISRDNAKNTVYLQMNSLKPEDTAVYYCAKRLSTRASFGEEDSWGQGTQVTVSS	low polyreactivity
QDQLVESGGGLLQAGGSLRLSCAASGLTFSDYAMGWYRQAPGKEREFVAAITRNGGSTRYADSVKGRFTISRDNAKNTVYVQMNSVKPEDTAVFYCHKVSFVYSRSKGFYYTYLKFEYWGQGTQVTVSS	low polyreactivity
QDQLVESGGGLLQAGGSLRLSCAASGSTIGYYAMGWYRQAPGKERELVAAINSGDSTSYADSVKGRFTISRDNAKNTVYLQMNSLKPEDTAVYYCAVRPRRHQYGYWGQGTQVTVSS	low polyreactivity
QDQLVESGGGLVHAGGSLRLSCAASVSTFTRYDMGRYRQAPGKERELVDAISWSGGRTHYADSVKGRFTISRENAKNTVYLQMNSLKPEDTAVYYCNTLYDYWYDYWGQGSQVTVSS	low polyreactivity
QDQLVESGGGLVQAGASLRLSCAASGITFNVYAMGWYRQAPGKEREFVAAISYNGGRTYYADSVKGRFTISRDNAKNTVYLQMNSLKPEDTAVYYCAAQWAWGPYDYWGQGTQVTVSS	high polyreactivity
QDQLVESGGGLVQAGCSLLLSCAASGRIFAKNAMVCYRQAPGKERELVATSSWSGSSTRYADSVKGRFTISRDYAKNSVYLQMNSLKPEDTAVYYCAARPTPRRTPYTATYDYWGQGTQVTVSS	high polyreactivity
QDQLVESGGGLVQAGGCLRLSCAASGSIFIPYAMGSYRQAPGKERELVAAISLGDGNTYYADSVKGRFTISRDNAKYTVYLQMNSLKPEDTAVYYCNAVPRKFGDEYWGQGTQVTVSS	low polyreactivity
QDQLVESGGGLVQAGGGLRLSCAASVRTFSKYTMGWYRQAPGKERELVAAISYSGGSTYYADSVKGRFTISRDNAKNTVYLQMNSLKPEDTAVYYCAARASTYKYYYWGQGTQVTVSS	high polyreactivity
QDQLVESGGGLVQAGGILRLSCAASGSTFFHYAMGWYRQAPGQEREFVAANDSNGGSTYYADSVKGRFSISRDNAKNTVYLQMTCLKPEETAVNYCAADDLAEFEYDYWGQGTQVTVSS	low polyreactivity
QDQLVESGGGLVQAGGILSLSCAASGSTFSYYAMGWYRQAPGTETELVAAISSRGGSTYYADSVKGRFTISRDNAKNPVYLQMNSLNPEDTAVDYCNADHKFRSSVSGDHDYWGQGTQVTVSS	high polyreactivity
QDQLVESGGGLVQAGGRLRLSCAASGFIFYSYVMGRYRQAPGKERELVASIRSRGGSTYYADSVKGRFTISRDNAKNTVYLQMNSLKPEDTAVYYCAADLYLSPSWYKYDYWGQGTQVTVSS	low polyreactivity
QDQLVESGGGLVQAGGSHRLSCAASGFISDKNAMGWYRQAPRKERELVAAISQRGDRTYYADSVKGRFTISRDNAKNTVYLQMNSLKPEDTAVYYCGYLVRYHHLRYWGQGTQVTVSS	high polyreactivity
QDQLVESGGGLVQAGGSHRLSCAASGSTFLGNTMGWYRQAPRKERELVAAISSSGTSTYYADSVKGRFTISRDNAKNTVYLQMNSLKPEDTAVYYCAAVIRVWWGFGDKYDYWGQGTQVTVAS	high polyreactivity
QDQLVESGGGLVQAGGSHRLTCAATGITLDNYVMGWYRQAPRTERELVAAISRTSGRTYYADSVKGRFTISRDNAKNTVYLQMHSLKPEDTGVYYCNARSRGRASGYDYWGHGTQVTVSS	high polyreactivity
QDQLVESGGGLVQAGGSIRLSCAASGGIFESYAMGWYRQAPGKEREMVASISSGGSTYYADSVKGRFTISRDNAKNTVYLQMNSLKPEDTAVYYCNKDYRSVYKGRGFDYWGQGTQVTVSS	low polyreactivity
